Where two headings read alike, the source gives them in different places. Values belong to the binder of their own block, whether it stands above or below them.
Legend:
[1] = biological target: T1, 4H968-bA; assay: two-hybrid library CCNG1;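 note: natural log of median RNA to DNA barcode read ratio; higher means stronger binding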
T1 chain: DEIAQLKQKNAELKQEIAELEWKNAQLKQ

[2] = biological target: T2, 4H967-bA; assay: two-hybrid library CCNG1;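 note: natural log of median RNA to DNA barcode read ratio; higher means stronger binding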
T2 chain: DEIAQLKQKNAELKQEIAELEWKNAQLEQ

[3] = biological target: T3, O7-bA; assay: two-hybrid library CCNG1;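 note: natural log of median RNA to DNA barcode read ratio; higher means stronger binding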
T3 chain: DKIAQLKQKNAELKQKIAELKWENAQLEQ

[4] = biological target: T4, 4H953-bA; assay: two-hybrid library CCNG1;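 note: natural log of median RNA to DNA barcode read ratio; higher means stronger binding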
T4 chain: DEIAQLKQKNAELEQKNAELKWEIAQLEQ

[5] = biological target: T5, 4H570-bA; assay: two-hybrid library CCNG1;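 note: natural log of median RNA to DNA barcode read ratio; higher means stronger binding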
T5 chain: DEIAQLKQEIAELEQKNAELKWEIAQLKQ

[6] = biological target: T6, 4H918-bH; assay: two-hybrid library CCNG1;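 note: natural log of median RNA to DNA barcode read ratio; higher means stronger binding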
T6 chain: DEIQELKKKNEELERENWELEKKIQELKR

[7] = biological target: T7, 4H3638-bA; assay: two-hybrid library CCNG1
T7 chain: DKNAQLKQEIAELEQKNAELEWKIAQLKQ

[8] = biological target: T8, 4H3817-bA; assay: two-hybrid library CCNG1
T8 chain: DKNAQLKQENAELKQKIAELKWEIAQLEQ

[9] = biological target: T9, 4H584-bA; assay: two-hybrid library CCNG1
T9 chain: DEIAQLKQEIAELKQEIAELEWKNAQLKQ

[10] = biological target: T10, 4H619-bA; assay: two-hybrid library CCNG1
T10 chain: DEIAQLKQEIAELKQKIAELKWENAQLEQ

[11] = biological target: T11, 4H906-bA; assay: two-hybrid library CCNG1
T11 chain: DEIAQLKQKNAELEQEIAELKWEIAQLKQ

[12] = biological target: T12, 4H883-bN; assay: two-hybrid library CCNG1
T12 chain: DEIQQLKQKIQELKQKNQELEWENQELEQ

[13] = biological target: T13, 4H850-bA; assay: two-hybrid library CCNG1
T13 chain: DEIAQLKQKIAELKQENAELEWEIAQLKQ

[14] = biological target: T14, 4H3974-bA; assay: two-hybrid library CCNG1
T14 chain: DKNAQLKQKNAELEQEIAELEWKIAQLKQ

[15] = biological target: T15, O8-bA; assay: two-hybrid library CCNG1
T15 chain: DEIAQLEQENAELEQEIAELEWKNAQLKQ

[16] = biological target: T16, O9-bA; assay: two-hybrid library CCNG1
T16 chain: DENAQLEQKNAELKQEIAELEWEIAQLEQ

[17] = biological target: T17, 4H850-AA; assay: two-hybrid library CCmax; conditions: mean of both orientations
T17 chain: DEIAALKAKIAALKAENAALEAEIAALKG

[18] = biological target: T18, 4H797-AA; assay: two-hybrid library CCmax
T18 chain: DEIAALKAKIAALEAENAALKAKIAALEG

[19] = biological target: T19, 4H94-AA; assay: two-hybrid library CCmax; conditions: mean of both orientations
T19 chain: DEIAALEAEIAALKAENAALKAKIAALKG

[20] = biological target: T20, 4H953-AA; assay: two-hybrid library CCmax; conditions: mean of both orientations
T20 chain: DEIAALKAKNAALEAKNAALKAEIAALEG

[21] = biological target: T21, 4H891-AA; assay: two-hybrid library CCmax; conditions: mean of both orientations
T21 chain: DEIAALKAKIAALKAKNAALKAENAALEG

[22] = biological target: T22, 4H909-AA; assay: two-hybrid library CCmax; conditions: mean of both orientations
T22 chain: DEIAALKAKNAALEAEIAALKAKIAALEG

[23] = biological target: T23, 4H883-AA; assay: two-hybrid library CCmax
T23 chain: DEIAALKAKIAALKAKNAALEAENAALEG

[24] = biological target: T24, 4H918-AA; assay: two-hybrid library CCmax; conditions: mean of both orientations
T24 chain: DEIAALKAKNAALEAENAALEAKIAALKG

[25] = biological target: T25, 4H967-AA; assay: two-hybrid library CCmax; conditions: mean of both orientations
T25 chain: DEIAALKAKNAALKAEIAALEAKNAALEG

[26] = biological target: T26, 4H930-AA; assay: two-hybrid library CCmax; conditions: mean of both orientations
T26 chain: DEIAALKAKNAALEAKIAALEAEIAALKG

[27] = biological target: T27, 4H3940-AA; assay: two-hybrid library CCmax; conditions: mean of both orientations
T27 chain: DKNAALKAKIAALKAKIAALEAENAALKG

[28] = biological target: T28, 4H3409-AA; assay: two-hybrid library CCmax; conditions: mean of both orientations
T28 chain: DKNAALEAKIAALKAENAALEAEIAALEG

[29] = biological target: T29, 4H390-AA; assay: two-hybrid library CCmax; conditions: mean of both orientations
T29 chain: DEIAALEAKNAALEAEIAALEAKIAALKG

[30] = biological target: T30, 4H3134-AA; assay: two-hybrid library CCmax; conditions: mean of both orientations
T30 chain: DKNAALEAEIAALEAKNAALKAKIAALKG

[31] = biological target: T31, 4H3625-AA; assay: two-hybrid library CCmax; conditions: mean of both orientations
T31 chain: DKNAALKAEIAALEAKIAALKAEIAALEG

[32] = biological target: T32, 4H775-AA; assay: two-hybrid library CCmax; conditions: mean of both orientations
T32 chain: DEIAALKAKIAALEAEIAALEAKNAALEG

[33] = biological target: T33, 4H816-AA; assay: two-hybrid library CCmax; conditions: mean of both orientations
T33 chain: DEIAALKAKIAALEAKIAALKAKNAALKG

[34] = biological target: T34, 4H2985-AA; assay: two-hybrid library CCmax
T34 chain: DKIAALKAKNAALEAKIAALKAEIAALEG

[35] = biological target: T35, 4H510-AA; assay: two-hybrid library CCmax; conditions: mean of both orientations
T35 chain: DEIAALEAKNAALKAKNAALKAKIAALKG

[36] = biological target: T36, 4H87-AA; assay: two-hybrid library CCmax; conditions: mean of both orientations
T36 chain: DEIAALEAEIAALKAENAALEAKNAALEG

Binder: DEIAQLKQKNAELEQKNAELKWEIAQLEQ [4H953-bA]
interaction score [1]: -1.33
interaction score [2]: -1.11
interaction score [3]: -0.716
interaction score [4]: -0.648

Binder: DKNAQLKQEIAELEQKNAELEWKIAQLKQ [4H3638-bA]
interaction score [5]: -0.717
interaction score [6]: 0.343
interaction score [7]: 0.115
interaction score [8]: -0.0786
interaction score [9]: -1.67
interaction score [10]: -0.0681
interaction score [11]: -1.97
interaction score [12]: -2.2
interaction score [13]: 0.728
interaction score [14]: 0.0825

Binder: DEIAALKAKIAALKAKNAALEAENAALEG [4H883-AA]
interaction score [20]: -2.05
interaction score [23]: -1.73
interaction score [24]: -1.46
interaction score [25]: -2.15

Binder: DKIAALKAKNAALEAKIAALKAEIAALEG [4H2985-AA]
interaction score [27]: -0.918
interaction score [28]: -0.847
interaction score [29]: 1.71
interaction score [30]: -0.682
interaction score [31]: 0.889
interaction score [32]: -0.922
interaction score [33]: -0.519
interaction score [34]: 0.681
interaction score [35]: -0.541
interaction score [36]: -1.48

Further lines, results first:

interaction score [15]: -0.893
interaction score [16]: -0.954
interaction score [3]: -0.303
Binder: DENAQLEQEIAELEQKNAELKWEIAQLEQ [O5-bA]

interaction score [17]: 1.16
interaction score [18]: 1.76
interaction score [19]: 0.948
interaction score [20]: -0.955
interaction score [21]: -1.35
interaction score [22]: -0.899
interaction score ([23]; mean of both orientations): -1.4
interaction score [24]: -0.389
interaction score [25]: -1.81
interaction score [26]: -1.72
Binder: DEIAALKAKIAALEAENAALKAKIAALEG [4H797-AA]
